Consider 2 molecules from patent publication US20240400703A1 (Genmab, published 2024).

Positions count from the first letter of the chain named. Names and notes keep the numbering of the source.

The target in test [1] is T1, human OX40 with mouse CRD2 (human with mouse CRD2, UniProt P43489 29-277).
T1 construct: on ExpiCHO-S cells; also called OX40-CRD2mm; Shuffle 2
T1 chain: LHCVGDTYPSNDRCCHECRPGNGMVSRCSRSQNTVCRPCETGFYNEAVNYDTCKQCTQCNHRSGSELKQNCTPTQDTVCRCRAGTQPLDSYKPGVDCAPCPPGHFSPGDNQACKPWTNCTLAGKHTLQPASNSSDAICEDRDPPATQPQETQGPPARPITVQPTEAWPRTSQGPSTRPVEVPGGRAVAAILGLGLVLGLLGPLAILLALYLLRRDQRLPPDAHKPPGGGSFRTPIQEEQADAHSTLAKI
Kind of test: flow cytometry, transfected ExpiCHO-S cells, gMFI (PE). On the technique in general: Flow cytometry measures light scatter and fluorescence of single cells or particles in a stream.

Test [2] deals with T2, human OX40 with mouse CRD3 (human with mouse CRD3, UniProt P43489 29-277).
T2 construct: on ExpiCHO-S cells; also called OX40-CRD3mm; Shuffle 3
T2 chain: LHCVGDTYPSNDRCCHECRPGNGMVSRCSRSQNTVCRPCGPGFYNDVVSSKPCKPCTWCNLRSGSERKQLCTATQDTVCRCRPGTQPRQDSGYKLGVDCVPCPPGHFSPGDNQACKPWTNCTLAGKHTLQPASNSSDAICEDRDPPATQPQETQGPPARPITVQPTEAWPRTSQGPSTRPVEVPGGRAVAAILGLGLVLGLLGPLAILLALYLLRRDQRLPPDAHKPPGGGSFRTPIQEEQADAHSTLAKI
Kind of test: flow cytometry, transfected ExpiCHO-S cells, MFI at 5 µg/mL as % of IgG1-CD134-A4453. The method, then: (§1) The four shuffle constructs, as well as wild-type human and mouse OX40 were transiently expressed on ExpiCHO-S cells using the ExpiFectamine™ CHO Transfection Kit (ThermoFisher, cat. no. A29131), according to the manufacturer's protocol. […] Next, cells were washed twice in FACS buffer 1, were resuspended in a 30 μL solution of viability marker ToPro-3 (Invitrogen, cat. no. T3605, diluted 1:10,000) in FACS buffer 1 supplemented with 2 mM EDTA, and were analyzed on an iQue Screener Plus (Intellicyt Corporation, USA). Data were analyzed using FlowJo software and visualized using GraphPad Prism.

In test [3] the target is T3, human OX40 with mouse CRD1 (human with mouse CRD1, UniProt P43489 29-277).
T3 construct: on ExpiCHO-S cells; also called OX40-CRD1mm; Shuffle 1
T3 chain: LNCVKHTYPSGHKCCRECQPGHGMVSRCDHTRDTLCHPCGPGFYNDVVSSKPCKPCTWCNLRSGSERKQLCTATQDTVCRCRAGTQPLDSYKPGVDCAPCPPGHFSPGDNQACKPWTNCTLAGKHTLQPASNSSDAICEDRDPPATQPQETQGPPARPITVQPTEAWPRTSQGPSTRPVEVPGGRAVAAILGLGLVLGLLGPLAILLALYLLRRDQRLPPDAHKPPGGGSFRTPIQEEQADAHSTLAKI
Described as above. The procedure:
as §1

For test [4], the target named is T4, cynomolgus monkey OX40 expressed on HEK293F cells (cynomolgus monkey (Macaca fascicularis), UniProt P43489 29-277 (human entry)).
T4 construct: full-length entry
T4 chain: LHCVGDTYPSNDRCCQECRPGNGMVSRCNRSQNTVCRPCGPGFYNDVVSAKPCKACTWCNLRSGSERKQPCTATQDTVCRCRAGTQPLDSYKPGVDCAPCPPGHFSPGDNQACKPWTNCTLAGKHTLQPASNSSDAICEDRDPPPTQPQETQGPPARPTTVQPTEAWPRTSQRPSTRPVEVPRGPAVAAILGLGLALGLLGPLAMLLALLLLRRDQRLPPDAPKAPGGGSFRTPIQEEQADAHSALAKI
As to the kind of experiment: flow cytometry, OX40-transfected HEK293F cells, gMFI (PE). The method, then: (§2) Transfected cells were seeded in 96-well plates (30,000 cells/well; ThermoFisher, cat. no. 163320) for sequential incubations, with washing steps in between using fluorescence-activated cell sorting (FACS) buffer 1 (phosphate buffered saline [PBS; Lonza, cat. no. BE17-517Q] supplemented with 0.1% bovine serum albumin [BSA; Roche, cat. no. 10735086001] and 0.02% sodium azide [NaN₃; Bio-World, cat. no. 41920044-3]) supplemented with 2 mM ethylenediaminetetraacetic acid (EDTA; Sigma-Aldrich, cat. no. 03690). […] Cells were then washed using EDTA-supplemented FACS buffer 1, resuspended in a 30 μL solution of viability marker ToPro-3 (Invitrogen, cat. no. T3605, diluted 1:10,000) in EDTA-supplemented FACS buffer 1, and subsequently analyzed on an iQue® 3 flow cytometer (Satorius). Data were analyzed using FlowJo software and were visualized using GraphPad Prism.

In test [5] the target is T5, human OX40 expressed on cells (human, UniProt P43489 29-277).
T5 construct: also called CD134; TNFRSF4
T5 sequence: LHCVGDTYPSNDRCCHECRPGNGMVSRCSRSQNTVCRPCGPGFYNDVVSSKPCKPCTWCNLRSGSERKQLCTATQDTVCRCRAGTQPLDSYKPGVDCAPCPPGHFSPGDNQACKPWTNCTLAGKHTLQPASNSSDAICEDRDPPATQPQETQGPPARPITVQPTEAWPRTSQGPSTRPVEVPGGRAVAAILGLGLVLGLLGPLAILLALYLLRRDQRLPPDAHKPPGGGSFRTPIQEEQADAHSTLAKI
The description is as above. The method, then: as §2

The target of test [6] is T6, human OX40 with mouse CRD4 (human with mouse CRD4, UniProt P43489 29-277).
T6 construct: on ExpiCHO-S cells; also called OX40-CRD4mm; Shuffle 4
T6 chain: T5 sequence with D109N, A122S, H125Q, L127R, Q128H, N132D, S134L, I137V
Kind of test: flow cytometry, transfected ExpiCHO-S cells, gMFI (PE). The method, then: as §1

For test [7], the target named is T7, mouse OX40 expressed on ExpiCHO-S cells (mouse, UniProt P47741 20-272).
T7 construct: full-length entry; also called OX40mm; wild-type mouse OX40
T7 sequence: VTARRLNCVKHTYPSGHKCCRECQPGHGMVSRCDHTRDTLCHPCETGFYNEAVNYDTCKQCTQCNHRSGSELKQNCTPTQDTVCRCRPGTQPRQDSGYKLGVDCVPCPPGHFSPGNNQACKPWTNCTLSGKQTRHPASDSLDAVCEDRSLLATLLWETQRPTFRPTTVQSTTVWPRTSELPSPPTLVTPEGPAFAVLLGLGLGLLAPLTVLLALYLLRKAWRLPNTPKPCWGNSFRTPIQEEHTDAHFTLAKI
Described as above.

The target in test [8] is T1, human OX40 with mouse CRD2. Kind of test: flow cytometry, transfected ExpiCHO-S cells, MFI at 5 µg/mL as % of IgG1-CD134-A4453. The procedure: as §1

B1: IgG1-CD134-007-RR (antibody)
heavy: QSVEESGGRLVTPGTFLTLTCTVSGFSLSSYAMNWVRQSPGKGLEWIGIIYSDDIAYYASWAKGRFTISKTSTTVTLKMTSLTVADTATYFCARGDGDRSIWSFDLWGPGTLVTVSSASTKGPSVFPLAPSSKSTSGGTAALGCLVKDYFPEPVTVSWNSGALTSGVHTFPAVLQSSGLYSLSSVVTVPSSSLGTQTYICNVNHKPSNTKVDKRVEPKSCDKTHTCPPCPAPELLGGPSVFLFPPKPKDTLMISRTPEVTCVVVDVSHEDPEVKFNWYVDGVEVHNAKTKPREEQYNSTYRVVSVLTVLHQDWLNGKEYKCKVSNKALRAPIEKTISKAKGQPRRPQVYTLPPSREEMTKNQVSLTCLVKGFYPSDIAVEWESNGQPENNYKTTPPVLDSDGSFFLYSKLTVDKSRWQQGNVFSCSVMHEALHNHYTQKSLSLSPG
light: AQVLTQTPSPVSAAVGGTVTISCQSSESVWNNNWLAWYQQKPGQPPNLLIYEASTLASGVSSRFKGSGSGTQFTLTVSEVQSDDAATYYCQGGYYDSSPIWTFGGGTEVVVKRTVAAPSVFIFPPSDEQLKSGTASVVCLLNNFYPREAKVQWKVDNALQSGNSQESVTEQDSKDSTYSLSSTLTLSKADYEKHKVYACEVTHQGLSSPVTKSFNRGEC
notes: non-humanized 007 variable regions; also called IgG1-CD134-007-P329R-E345R
As for B1, the binding result in test [1] is reported as “no binding (tested: 50 µg/mL)”; in test [2], “binds”; in test [3], “binds”; in test [6], “binds”; in test [7] it was “no binding (tested: 50 µg/mL)”. Also, the entries for the 50% effective concentration (EC50 (read off the curve)) in test [4] and in test [5] were about 0.04 mg/L and about 0.05 mg/L, respectively.

B2: IgG1-CD134-012-RR-K409R (antibody)
heavy: QSLEESGGRLVTPGTPLTLICTVSGIDLSSGAMGWVRQAPGKGLEYIGYIYTGSGTTSYASWVNGRFTISMTSTTVDLKITSPTTEDTATYFCARDAASSYWGHFTLWGQGTLVTVSSASTKGPSVFPLAPSSKSTSGGTAALGCLVKDYFPEPVTVSWNSGALTSGVHTFPAVLQSSGLYSLSSVVTVPSSSLGTQTYICNVNHKPSNTKVDKRVEPKSCDKTHTCPPCPAPELLGGPSVFLFPPKPKDTLMISRTPEVTCVVVDVSHEDPEVKFNWYVDGVEVHNAKTKPREEQYNSTYRVVSVLTVLHQDWLNGKEYKCKVSNKALRAPIEKTISKAKGQPRRPQVYTLPPSREEMTKNQVSLTCLVKGFYPSDIAVEWESNGQPENNYKTTPPVLDSDGSFFLYSRLTVDKSRWQQGNVFSCSVMHEALHNHYTQKSLSLSPG
light: DIVMTQTPASVEAAVGGTVTIKCQASENIYSSLAWYQQKPGQPPKLLIYRTSTLASGVPSRFKGSGSGTQFTLTISDLESDDAATYYCQSYYHNSGGGYDYGFGGGTEVVAKRTVAAPSVFIFPPSDEQLKSGTASVVCLLNNFYPREAKVQWKVDNALQSGNSQESVTEQDSKDSTYSLSSTLTLSKADYEKHKVYACEVTHQGLSSPVTKSFNRGEC
notes: also called IgG1-CD134-012-P329R-E345R-K409R
As for B2, the binding result is “binds” in test [2], “binds” in test [8], “binds” in test [6] and “no binding (tested: 50 µg/mL)” in test [7]. Further, the EC50 (read off the curve) – broadly, the concentration needed to bring the measured effect to its halfway point – was about 0.06 mg/L in test [4] and about 0.05 mg/L in test [5].
